Changes are numbered by the printed parent chain. In names and notes the source's numbering stands.
B1: LIBC524049-1 (antibody, IgG1, V domains shown)
VH: QVQLQESGPGLVKPSQTLSLTCTVSGGSIRRGGDYWSWIRQHPGKGLEWIGHIYYTGSTAYNPSLKSRATISVNTYKNQFSLKLSSVTAADTAVYYCARDYDILTGYSYYYYGMDVWGQGTTVTVSS
VL: not shown
B2: 10D10 (antibody, V domains shown)
VH: B1 VH with H52Y, T56S, A60N, N74D, Y76S
VL: not shown
notes: also called 10D10 antibody; 10D10 parent
B3: LIBC527997-1 (antibody, IgG1, V domains shown)
VH: B1 VH with S37A, Y55Q, A60N, S64R, L65F, S67G, D100N, I103T
VL: DIQMTQSPSSLSASVGDRVTITCRASQSISNYLNWYQQKPGKAPKLLIYAASSLHSGVPSRFSGSGSGTDFTLTISSLQPEDFASYYCQQYQSYPLTFGQGTKVEIKR
B4: LIBC527814-1 (antibody, IgG1, V domains shown)
VH: B1 VH with S37G, I53V, Y55Q, A60K, L65F, S67D, D100N, I103T
VL: B3 VL with S10T
B5: LIBC527919-1 (antibody, IgG1, V domains shown)
VH: B1 VH with S37A, I53V, Y55Q, S64N, L65F, S67D, D100N, I103A, T105S
VL: B3 VL with M4L, S30I, N31S, H55R, S85T, Q92S, S93N, Q100G, K103R
B6: LIBC524049-1 (antibody, V domains shown)
VH: B1 VH
VL: not shown
notes: Expressed as IgG1 SEFL2 mAb
B7: LIBC527997-1 (antibody, V domains shown)
VH: B1 VH with S37A, Y55Q, A60N, S64R, L65F, S67G, D100N, I103T
VL: B3 VL
notes: Expressed as IgG1 SEFL2 mAb
B8: LIBC527919-1 (antibody, V domains shown)
VH: B1 VH with S37A, I53V, Y55Q, S64N, L65F, S67D, D100N, I103A, T105S
VL: B3 VL with M4L, S30I, N31S, H55R, S85T, Q92S, S93N, Q100G, K103R
notes: Expressed as IgG1 SEFL2 mAb
B9: LIBC523969-1 (antibody, V domains shown)
VH: B1 VH with Y55Q, S58Q, A60K, S64N, S67G
VL: DIVMTQSPLSLPVTPGEPASISCRSSQSLLSSTGANYLDWYLQKPGQSPQLLIYQGSNRASGVPDRFSGSGSGTDFTLKISRVEAEDVGVYYCRQAVGLPRTFGQGTKVEIKR
B10: LIBC680562-1 (yeast-displayed Fab) (Fab, V domains shown)
VH: B1 VH with S37A, Y55Q, A60N, S64R, L65F, S67G, D100N, I103T
VL: DIQMTQSPSSLSASVGDRVTITCRASQSISSYLNWYQQKPGKAPKLLIYSARRLSSGVPSRFSGSGSGTDFTLTISSLQPEDFATYYCQQYAKSPITFGGGTKVEIKR
B11: LIBC680773-1 (yeast-displayed Fab) (Fab, V domains shown)
VH: B1 VH with S37A, I53V, A60N, S64R, L65F, S67D, D100N, I103T, L104V
VL: B10 VL with S50K, R53L, A92S, K93R, S94L, I96L
B12: LIBC680812-1 (yeast-displayed Fab) (Fab, V domains shown)
VH: B1 VH with S37G, I53V, Y55Q, A60K, L65F, S67D, D100N, I103T
VL: B10 VL with A92R, K93S, S94Y
B13: LIBC681594-1 (yeast-displayed Fab) (Fab, V domains shown)
VH: B1 VH with S37A, Y55Q, A60N, S64R, L65F, S67G, D100N, I103T
VL: B10 VL with S50K, R53K, Y91F, A92G, K93S, S94M, I96L
B14: LIBC681737-1 (yeast-displayed Fab) (Fab, V domains shown)
VH: B1 VH with S37A, I53V, A60N, S64R, L65F, S67D, D100N, I103T, L104V
VL: B10 VL with S12P, S55A, A92Y, K93H, S94P
notes: Original yeast clone without the LC P12S germline reversion; Monovalent Fab on yeast

target: T1, human cannabinoid receptor type 2 (CB2) (human, UniProt P34972 1-360); experiment: fold over mock (Table 14)
T1 construct: also called huCB2; full length hu CB2
T1 sequence (P34972 whole entry): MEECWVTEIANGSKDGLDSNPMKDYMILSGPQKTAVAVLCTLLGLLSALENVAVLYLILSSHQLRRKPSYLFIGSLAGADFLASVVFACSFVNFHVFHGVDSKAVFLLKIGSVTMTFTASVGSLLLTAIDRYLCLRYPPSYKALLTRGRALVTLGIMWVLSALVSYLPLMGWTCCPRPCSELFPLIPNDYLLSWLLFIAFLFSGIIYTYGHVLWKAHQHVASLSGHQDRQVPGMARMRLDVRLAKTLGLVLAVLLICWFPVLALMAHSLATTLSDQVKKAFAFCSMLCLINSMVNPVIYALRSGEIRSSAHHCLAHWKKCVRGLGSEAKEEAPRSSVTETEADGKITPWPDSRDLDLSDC

| Binder | binding result |
| --- | --- |
| B1 | no binding |
| B2 | no binding |
| B3 | no binding |
| B4 | no binding |
| B5 | no binding |

target: T2, mouse CB1 (mouse, UniProt P47746 1-473); experiment: fold over mock (Table 14)
T2 construct: also called muCB1; murine CB1
T2 sequence (P47746 whole entry): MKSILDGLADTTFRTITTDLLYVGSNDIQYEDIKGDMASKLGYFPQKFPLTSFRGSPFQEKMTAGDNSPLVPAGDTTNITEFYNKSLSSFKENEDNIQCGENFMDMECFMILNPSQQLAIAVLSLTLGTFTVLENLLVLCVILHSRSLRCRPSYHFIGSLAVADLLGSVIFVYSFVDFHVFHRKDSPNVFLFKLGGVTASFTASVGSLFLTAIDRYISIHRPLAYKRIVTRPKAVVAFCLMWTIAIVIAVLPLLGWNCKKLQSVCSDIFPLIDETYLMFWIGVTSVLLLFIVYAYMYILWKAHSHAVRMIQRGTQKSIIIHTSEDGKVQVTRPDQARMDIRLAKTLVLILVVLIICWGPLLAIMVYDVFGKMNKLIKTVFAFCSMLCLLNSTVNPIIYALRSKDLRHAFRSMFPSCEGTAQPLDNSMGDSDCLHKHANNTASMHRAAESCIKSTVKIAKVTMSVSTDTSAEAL

| Binder | binding result |
| --- | --- |
| B1 | no binding |
| B2 | no binding |
| B3 | no binding |
| B4 | no binding |
| B5 | no binding |

target: T3, human cannabinoid receptor 1 (huCB1), full length, expressed on cells (human, UniProt P21554 1-472); experiment: cell-based or functional assay
T3 sequence (P21554 whole entry): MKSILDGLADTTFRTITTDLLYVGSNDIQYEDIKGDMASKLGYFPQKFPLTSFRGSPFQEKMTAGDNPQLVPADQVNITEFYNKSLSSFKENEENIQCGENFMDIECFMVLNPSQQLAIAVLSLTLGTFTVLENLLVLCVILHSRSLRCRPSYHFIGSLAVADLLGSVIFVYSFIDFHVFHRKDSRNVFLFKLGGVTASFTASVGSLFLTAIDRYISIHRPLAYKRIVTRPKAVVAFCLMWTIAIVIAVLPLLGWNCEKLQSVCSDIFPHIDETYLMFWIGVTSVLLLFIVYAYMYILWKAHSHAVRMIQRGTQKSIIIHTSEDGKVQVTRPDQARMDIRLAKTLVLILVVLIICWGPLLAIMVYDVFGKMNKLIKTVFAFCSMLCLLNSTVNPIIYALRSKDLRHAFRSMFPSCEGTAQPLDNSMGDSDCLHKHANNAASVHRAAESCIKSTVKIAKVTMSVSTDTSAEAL

| Binder | Mean IC50 (nM), cAMP antagonist assay | Mean IC50, -fold vs Rimo | n = 1 IC50 (nM), cAMP antagonist assay | n = 1 IC50, -fold vs Rimo | n = 2 IC50 (nM), cAMP antagonist assay | n = 2 IC50, -fold vs Rimo |
| --- | --- | --- | --- | --- | --- | --- |
| B6 | 2.87 nM | 0.96 fold vs Rimonabant | 4.41 nM | 1.05 fold vs Rimonabant | 1.34 nM | 0.75 fold vs Rimonabant |
| B7 | 2.97 nM | 0.99 fold vs Rimonabant | 4.37 nM | 1.04 fold vs Rimonabant | 1.57 nM | 0.88 fold vs Rimonabant |
| B8 | 3.44 nM | 1.15 fold vs Rimonabant | 5.09 nM | 1.21 fold vs Rimonabant | 1.8 nM | 1 fold vs Rimonabant |

target: T3, human cannabinoid receptor 1 (huCB1), …; experiment: cell-based or functional assay; remark: another data set of the same source

| Binder | Mean IC50 (nM, n = 3), cAMP antagonist assay |
| --- | --- |
| B6 | 3.71 nM |
| B7 | 2.54 nM |
| B8 | 3.01 nM |

target: T3, human cannabinoid receptor 1 (huCB1), …; experiment: cell-based or functional assay; remark: another data set of the same source

| Binder | IC50, nM (CP agonist) |
| --- | --- |
| B6 | 3.7 nM |
| B7 | 2.5 nM |
| B8 | 3 nM |

target: T4, GFP-fused huCB1-SMALP (human CB1 in styrene maleic acid lipoparticles) (human, UniProt P21554 1-472); experiment: flow cytometry, yeast-displayed IgG, GFP MFI
T4 construct: Prepared as in Luna V. et al. 2018; also called huCB1-GFP-SMALP; wtCB1-SMALP; not shown: GFP fusion
T4 sequence (P21554 whole entry, the tested form may be a part): as the sequence (P21554 whole entry) above

| Binder | 100 nM huCB1-SMALP binding (normalized to 10D10) |
| --- | --- |
| B9 | 5.69 fold |
| B1 | 5.51 fold |

target: T4, GFP-fused huCB1-SMALP (human CB1 in …); experiment: flow cytometry, yeast-displayed IgG, GFP MFI; remark: another data set of the same source

| Binder | 100 nM huCB1-GFP-SMALP binding (normalized to 10D10N35Y) |
| --- | --- |
| B3 | 6.63 fold |
| B4 | 6.44 fold |
| B5 | 4.15 fold |

target: T1, human cannabinoid receptor type 2 (CB2); experiment: binding to huCB2, fold over mock (method not described)

| Binder | Fold over mock |
| --- | --- |
| B1 | 1 fold |
| B3 | 0.8 fold |
| B4 | 0.9 fold |
| B5 | 0.9 fold |

target: T2, mouse CB1; experiment: binding to muCB1, fold over mock (method not described)

| Binder | Fold over mock |
| --- | --- |
| B1 | 0.8 fold |
| B3 | 1 fold |
| B4 | 1.2 fold |
| B5 | 1 fold |

target: T5, His-tagged huCB1-ND (human CB1 in nanodisc) (human); experiment: flow cytometry, yeast-displayed IgG, binding/display ratio
T5 construct: CB1 construct of Cell 167(3) (2016) 750-762 expressed in Sf9 cells; POPC:MSP1D1:CB1 480:8:1; also called CB1-nanodisc; huCB1-Nanodisc; not shown: histidine purification tag
T5 sequence (P21554 99-414): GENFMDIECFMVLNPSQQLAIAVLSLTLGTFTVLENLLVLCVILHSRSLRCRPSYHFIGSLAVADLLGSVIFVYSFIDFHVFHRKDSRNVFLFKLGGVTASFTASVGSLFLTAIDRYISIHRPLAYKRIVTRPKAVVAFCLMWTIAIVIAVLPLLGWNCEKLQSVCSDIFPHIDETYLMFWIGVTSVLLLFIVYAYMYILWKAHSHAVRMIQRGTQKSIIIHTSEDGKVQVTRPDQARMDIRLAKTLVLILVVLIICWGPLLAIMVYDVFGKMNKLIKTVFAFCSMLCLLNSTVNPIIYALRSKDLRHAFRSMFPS

| Binder | relative binding to 0.2 nM huCB1-ND (relative to 10D10N35Y) |
| --- | --- |
| B9 | 4.53 fold |
| B1 | 5.01 fold |

target: T5, His-tagged huCB1-ND (human CB1 in …); experiment: as above; remark: another data set of the same source

| Binder | 0.200 nM huCB1-Nanodisc binding (relative to 10D10N35Y) |
| --- | --- |
| B3 | 6.38 fold |
| B4 | 6.49 fold |
| B5 | 5.22 fold |

target: T6, empty-ND (nanodisc without CB1); experiment: as above
T6 construct: its only protein is the nanodisc scaffold; also called Empty Nanodisc

| Binder | 50.0 nM Empty Nanodisc binding (relative to 10D10N35Y) |
| --- | --- |
| B3 | 0.44 fold |
| B4 | 0.61 fold |
| B5 | 0.64 fold |

target: T5, His-tagged huCB1-ND (human CB1 in …); experiment: flow cytometry, yeast-displayed IgG, huCB1-ND over empty-ND

| Binder | specific huCB1 binding (CB1 ND/Empty ND ratio) |
| --- | --- |
| B9 | 12.8 ratio |
| B1 | 9.5 ratio |

target: T7, huCB1 nanodisc (CB1-ND) (human, UniProt P21554 99-414); experiment: flow cytometry, yeast-displayed Fab, 0.2 nM CB1-ND, after background subtraction
T7 construct: The His-tagged CB1 is embedded in a POPC lipid nanodisc with MSP1D1 scaffold protein (molar ratio 480:8:1); also called huCB1-ND; #CB1-008
T7 sequence (P21554 99-414 limits assumed): as the sequence (P21554 99-414) above

| Binder | Relative binding fold change compared to LIBC528116 (Fab) |
| --- | --- |
| B10 | 3.34 fold |
| B11 | 2.4 fold |
| B12 | 2.23 fold |
| B13 | 3.56 fold |
| B14 | 1.89 fold |

target: empty nanodisc (Empty ND); experiment: flow cytometry, yeast-displayed Fab, 50 nM Empty ND, after background subtraction
Sequence (P02647 79-267): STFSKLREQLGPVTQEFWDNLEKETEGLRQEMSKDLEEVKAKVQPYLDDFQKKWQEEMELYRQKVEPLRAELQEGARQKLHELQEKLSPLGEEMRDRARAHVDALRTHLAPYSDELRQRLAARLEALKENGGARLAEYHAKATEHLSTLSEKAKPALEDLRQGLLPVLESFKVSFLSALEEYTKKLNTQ

| Binder | Relative binding fold change compared to LIBC528116 (Fab) |
| --- | --- |
| B10 | 0.68 fold |
| B11 | 0.75 fold |
| B12 | 0.74 fold |
| B13 | 0.83 fold |
| B14 | 0.73 fold |

target: T7, huCB1 nanodisc (CB1-ND); experiment: Octet BLI; antibody captured by anti-human Fc, CB1-nanodisc in solution, 1:1 model

| Binder | Kd | koff | kon |
| --- | --- | --- | --- |
| B6 | 15 nM | 0.000904 s⁻¹ | 59000 M⁻¹ s⁻¹ |
| B7 | 26 nM | 0.00136 s⁻¹ | 51800 M⁻¹ s⁻¹ |
| B8 | 60 nM | 0.00339 s⁻¹ | 56200 M⁻¹ s⁻¹ |

target: T8, GFP-fused huCB1 in styrene maleic acid lipoparticles (CB1-SMALP-GFP) (human, UniProt P21554 1-472); experiment: flow cytometry, yeast-displayed Fab, 2.5 nM CB1-SMALP-GFP, after background subtraction
T8 construct: Prepared as described in Luna V. et al. 2018; also called huCB1-GFP-SMALP; GFP-tagged huCB1-SMALP; not shown: GFP fused to huCB1
T8 sequence (P21554 whole entry, the tested form may be a part): as the sequence (P21554 whole entry) above

| Binder | Relative binding fold change compared to LIBC528116 (Fab) |
| --- | --- |
| B10 | 1.94 fold |
| B11 | 1.9 fold |
| B12 | 1.71 fold |
| B13 | 2.57 fold |
| B14 | 1.94 fold |

target: T3, human cannabinoid receptor 1 (huCB1), …; experiment: KinExA on-cell ranking, HEK 293T cells expressing full length CB1; %IFF of LIBC523661 divided by %IFF of antibody

| Binder | Relative binding (KinExA, on cell; vs LIBC523661 mAb) |
| --- | --- |
| B6 | 1.5 ratio |
| B7 | 2.1 ratio |
| B8 | 2.9 ratio |

target: T5, His-tagged huCB1-ND (human CB1 in …); experiment: flow cytometry on IgG-displaying yeast, 0.2 nM His-tagged huCB1 nanodisc, APC anti-His (y) vs PE anti-huFc display (x)

| Binder | % of events in the upper right quadrant (display-positive, binding-positive) |
| --- | --- |
| B9 | 46.8% |
| B1 | 39.9% |
| B2 | 0.431% |

target: T4, GFP-fused huCB1-SMALP (human CB1 in …); experiment: flow cytometry on IgG-displaying yeast, 100 nM GFP-fused huCB1-SMALP, GFP in BB515-A (y) vs AlexaFluor647 anti-huFab display in APC-A (x)

| Binder | % of events in the upper right quadrant (display-positive, binding-positive) |
| --- | --- |
| B9 | 27.2% |
| B1 | 24.8% |
| B2 | 1.48% |

— US20250277029A1 (Amgen, published 2025)
